The record followed here is PMC8826899.

Assay [1] addresses HSPA8-GST (recombinant full-length monkey HSPA8 with GST tag) (monkey).
For assay [2] the target is unchanged. This is another data set of the same source.

For the substance “PRRSV virions (PRRSV-2 strain BJ-4) (complex)”, the PRRSV RNA abundance (RT-qPCR, 24 h) in MARC-145 cells after PRRSV (0.1 MOI) was pre-incubated with soluble HSPA8-GST (0.5, 1, 2 μM); GST protein 2 μM as control in assay [1] turned out to be 50 % reduction. For the same substance, in assay [2], the PRRSV infectivity (IFA) in MARC-145 cells whose surface HSPA8 (endogenous) was blocked with 16- and 32-fold diluted mouse HSPA8-GST pAbs came out at 75 % decrease; the PRRSV titers (TCID50) in MARC-145 cells whose surface HSPA8 (endogenous) was blocked with 16-fold diluted mouse HSPA8-GST pAbs; decrease (log10TCID50/mL) came out at 1.
